Values joined by “and” are separate entries in the source; they are usually repeats but may differ in a detail not shown here. Equal values may be shown once.
How the values were obtained:
[1] = target: Human Talin 1 R1R2-17b (residues 482-786 + additional 17 residues) (human) (UniProt Q9Y490); experiment: SEC
[2] = target: Human Talin 1 R1R2-WT (residues 482-786) (human, UniProt Q9Y490 482-786); experiment: NMR titration

Molecule	stoichiometry N (vinculin per talin) [1]	binding result [2]
Vinculin domain 1 (VD1) (from UniProt P18206 1-258) (domain or fragment)	2 and 3	–
SEDIDQMFSTLLGEMDLLTQSLGVDTC [RIAM peptide (residues 4-30)]	–	binds

From article doi:10.1101/2022.09.06.506802 (bioRxiv, 2022)
